From patent US20230287084A1

Experiments:
Test in all cases: cell-based or functional assay
BMP-10 = target: T1, BMP-10 (UniProt O95393)
T1 sequence (looked up): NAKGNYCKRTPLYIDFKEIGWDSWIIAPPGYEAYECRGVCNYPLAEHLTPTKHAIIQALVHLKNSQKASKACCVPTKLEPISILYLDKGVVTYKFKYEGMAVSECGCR

BMP-9 = target: T2, BMP-9 (UniProt Q9UK05)
T2 sequence (looked up): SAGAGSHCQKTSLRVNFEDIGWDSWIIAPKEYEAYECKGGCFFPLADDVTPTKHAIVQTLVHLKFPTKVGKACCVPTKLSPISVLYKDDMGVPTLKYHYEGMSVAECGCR

GDF-11 = target: T3, GDF-11 (UniProt O95390)
T3 sequence (looked up): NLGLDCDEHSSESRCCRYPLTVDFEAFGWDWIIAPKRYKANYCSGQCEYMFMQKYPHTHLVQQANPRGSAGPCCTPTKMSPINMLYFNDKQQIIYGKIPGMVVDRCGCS

GDF-8 = target: T4, GDF-8 (UniProt O14793)
T4 sequence (looked up): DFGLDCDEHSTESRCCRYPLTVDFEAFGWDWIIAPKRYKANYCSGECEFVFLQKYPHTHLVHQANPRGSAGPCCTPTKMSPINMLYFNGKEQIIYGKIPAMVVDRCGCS

activin A = target: T5, activin A (UniProt P08476)
T5 sequence (looked up): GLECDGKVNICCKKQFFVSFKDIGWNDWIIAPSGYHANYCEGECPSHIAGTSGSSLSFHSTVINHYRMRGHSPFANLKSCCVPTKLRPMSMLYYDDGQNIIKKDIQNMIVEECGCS

activin B = target: T6, activin B (UniProt P09529)
T6 sequence (looked up): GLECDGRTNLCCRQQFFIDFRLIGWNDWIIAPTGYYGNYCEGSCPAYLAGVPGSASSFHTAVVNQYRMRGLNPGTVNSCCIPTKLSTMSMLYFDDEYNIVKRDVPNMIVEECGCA

| Substance | Average IC50, BMP-10 neutralization (HepG2 BMP-reporter) (BMP-10) | Average IC50, BMP-9 neutralization (HepG2 BMP-reporter) (BMP-9) | Avg IC50, GDF-11 neutralization (HEK293 TGFβ-reporter) (GDF-11) | Avg IC50, GDF-8 neutralization (HEK293 TGFβ-reporter) (GDF-8) | Avg IC50, activin A neutralization (HEK293 TGFβ-reporter) (activin A) | Avg IC50, activin B neutralization (HEK293 TGFβ-reporter) (activin B) | also measured |
| --- | --- | --- | --- | --- | --- | --- | --- |
| P75 (wild type human ActRIIB-ECD-Fc) (Fc fusion) | 2 nM | 2.7 nM | 0.76 nM | 0.67 nM | 2.3 nM | 1.4 nM |  |
| P444 (wild type human ActRIIA-ECD-Fc) (Fc fusion) | 3.7 nM | 248 nM | 1.6 nM | 3.1 nM | 2.7 nM | 0.95 nM | IC50, BMP-9 neutralization (HepG2 BMP-reporter) (BMP-9): > 100 nM; IC50, GDF-8 neutralization (HEK293 TGFβ-reporter) (GDF-8): 3.06 nM |
| P701 (hActRIIB - F58K, 14aa linker, IgG1 FcDL) (Fc fusion) | 0.96 nM | 386 nM | 0.75 nM | 1.1 nM | 0.52 nM | 0.55 nM |  |
| P715 (hActRIIB - F58W, 14aa linker, IgG1 FcDL) (Fc fusion) | 2.4 nM | 60 nM | 0.9 nM | 0.83 nM | 0.9 nM | 1.4 nM |  |
| P720 (hActRIIB - D30Q + F58E, 14aa linker, IgG1 FcDL) (Fc fusion) | 2.3 nM | 914 nM | 0.54 nM | 0.77 nM | 0.97 nM | 2.7 nM |  |
| P758 (hActRIIB - G27D, 14aa linker, IgG1 FcDL) (Fc fusion) | 1.9 nM | 1.2 nM | 1.4 nM |  | 1.1 nM | 2.4 nM |  |
| P759 (hActRIIB - D57E, 14aa linker, IgG1 FcDL) (Fc fusion) | > 1000 nM | > 1000 nM | 137 nM | 397 nM | 274 nM | 227 nM | % increase of potency relative to P120 (GDF-11): 86%; % increase of potency relative to P120 (GDF-8): 60%; % increase of potency relative to P120 (activin A): 73%; % increase of potency relative to P120 (activin B): 77% |

Second part, led by results:

| Average IC50, BMP-10 neutralization (HepG2 BMP-reporter) (BMP-10) | Average IC50, BMP-9 neutralization (HepG2 BMP-reporter) (BMP-9) | Avg IC50, GDF-11 neutralization (HEK293 TGFβ-reporter) (GDF-11) | Avg IC50, GDF-8 neutralization (HEK293 TGFβ-reporter) (GDF-8) | Avg IC50, activin A neutralization (HEK293 TGFβ-reporter) (activin A) | Avg IC50, activin B neutralization (HEK293 TGFβ-reporter) (activin B) | Substance | also measured |
| --- | --- | --- | --- | --- | --- | --- | --- |
| 1.9 nM | 1.8 nM | 0.73 nM | 0.65 nM | 0.79 nM | 1.3 nM | P694 (hActRIIB - F58Y, 14aa linker, IgG1 FcDL) (Fc fusion) |  |
|  | 657 nM |  | 2.1 nM | 4.3 nM |  | P698 (hActRIIB - F58K, 3aa linker, IgG1 FcDL) (Fc fusion) | fold lower inhibition potency relative to P444 (BMP-9): 2.6 fold; fold higher inhibition potency relative to P444 (GDF-8): 1.5 fold |
| 1.4 nM | 110 nM | 0.42 nM | 0.55 nM | 0.62 nM | 0.66 nM | P708 (hActRIIB - F58Q, 14aa linker, IgG1 FcDL) (Fc fusion) |  |
|  | 58 nM |  | 0.29 nM | 0.42 nM |  | P709 (hActRIIB - F58Q, 39aa linker, IgG1 FcDL) (Fc fusion) | fold increase of inhibition potency relative to P1218 (GDF-8): 2.8 fold; fold increase of inhibition potency relative to P1218 (activin A): 2.6 fold |
| > 1000 nM | > 1000 nM | > 1000 nM | > 1000 nM | > 1000 nM | > 1000 nM | P718 (hActRIIB - D57E + F58E, 3aa linker, IgG1 FcDL) (Fc fusion) |  |
| 1.7 nM | > 100 nM | 0.58 nM | 0.61 nM | 0.63 nM | 2.3 nM | P719 (hActRIIB - Q29Y + F58E, 14aa linker, IgG1 FcDL) (Fc fusion) |  |
| 1.2 nM | 0.27 nM | 0.34 nM | 0.31 nM | 0.47 nM | 0.55 nM | P757 (WT hActRIIB, 14aa linker, IgG1 FcDL) (Fc fusion) | % increase of potency relative to P75 (BMP-10): 67%; % increase of potency relative to P75 (BMP-9): 900%; % increase of potency relative to P75 (GDF-11): 124%; % increase of potency relative to P75 (GDF-8): 116%; % increase of potency relative to P75 (activin A): 389%; % increase of potency relative to P75 (activin B): 155% |
| 22 nM | 8.7 nM | 8.6 nM | 12 nM | 8.4 nM | 41 nM | P761 (hActRIIB - K31Y, 14aa linker, IgG1 FcDL) (Fc fusion) | % increase of potency relative to P124 (BMP-9): 83%; % decrease of potency relative to P124 (GDF-11): 61%; % decrease of potency relative to P124 (GDF-8): 64%; % decrease of potency relative to P124 (activin A): 58%; % decrease of potency relative to P124 (activin B): 88% |
| > 1000 nM | > 1000 nM | 27 nM | 66 nM | > 1000 nM | > 1000 nM | P762 (hActRIIB - V75Q, 14aa linker, IgG1 FcDL) (Fc fusion) |  |
